The target in series [1] is T1, TIAH/LH, MMP2 selective substrate.
T1 chain: TIAHLH

For series [2], the target named is T2, YGRAAA (SEQ ID NO: 17), uPA selective substrate.
T2 chain: YGRAAA

B1: MMP-2 (protein)
chain: YNFFPRKPKWDKNQITYRIIGYTPDLDPETVDDAFARAFQVWSDVTPLRFSRIHDGEADIMINFGRWEHGDGYPFDGKDGLLAHAFAPGTGVGGDSHFDDDELWTLGEGQVVRVKYGNADGEYCKFPFLFNGKEYNSCTDTGRSDGFLWCSTTYNFEKDGKYGFCPHEALFTMGGNAEGQPCKFPFRFQGTSYDSCTTEGRTDGYRWCGTTEDYDRDKKYGFCPETAMSTVGGNSEGAPCVFPFTFLGNKYESCTSAGRSDGKMWCATTANYDDDRKWGFCPDQGYSLFLVAAHEFGHAMGLEHSQDPGALMAPIYTYTKNFRLSQDDIKGIQELYGASPDIDLGTGPTPTLGPVTPEICKQDIVFDGIAQIRGEIFFFKDRFIWRTVTPRDKPMGPLLVATFWPELPEKIDAVYEAPQEEKAVFFAGNEYWIYSASTLERGYPKPLTSLGLPPDVQRVDAAFNWSKNKKTYIFAGDKFWRYNEVKKKMDPGFPKLIADAWNAIPDNLDAVVDLQGGGHSYFFKGAYYLKLENQSLKSVKFGSIKSDWLGC
For B1, the “cleavage of ACPP substrate by protease” value in series [1] is “selectively cleaved by MMP-2 versus 9 and 14”.

B2: tissue plasminogen activator (tPA) (protein)
chain: SYQVICRDEKTQMIYQQHQSWLRPVLRSNRVEYCWCNSGRAQCHSVPVKSCSEPRCFNGGTCQQALYFSDFVCQCPEGFAGKCCEIDTRATCYEDQGISYRGTWSTAESGAECTNWNSSALAQKPYSGRRPDAIRLGLGNHNYCRNPDRDSKPWCYVFKAGKYSSEFCSTPACSEGNSDCYFGNGSAYRGTHSLTESGASCLPWNSMILIGKVYTAQNPSAQALGLGKHNYCRNPDGDAKPWCHVLKNRRLTWEYCDVPSCSTCGLRQYSQPQFRIKGGLFADIASHPWQAAIFAKHRRSPGERFLCGGILISSCWILSAAHCFQERFPPHHLTVILGRTYRVVPGEEEQKFEVEKYIVHKEFDDDTYDNDIALLQLKSDSSRCAQESSVVRTVCLPPADLQLPDWTECELSGYGKHEALSPFYSERLKEAHVRLYPSSRCTSQHLLNRTVTDNMLCAGDTRSGGPQANLHDACQGDSGGPLVCLNDGRMTLVGIISWGLGCGQKDVPGVYTKVTNYLDWIRDNMRP
As to B2, the “cleavage of ACPP substrate by protease” value in series [2] is reported as “to a lesser extent by tPA”.
